B1: BBSome complex member BBS4 (Homo sapiens), Q96RK4 (parent)
chain: MAEERVATRTQFPVSTESQKPRQKKAPEFPILEKQNWLIHLHYIRKDYEACKAVIKEQLQETQGLCEYAIYVQALIFRLEGNIQESLELFQTCAVLSPQSADNLKQVARSLFLLGKHKAAIEVYNEAAKLNQKDWEISHNLGVCYIYLKQFNKAQDQLHNALNLNRHDLTYIMLGKIHLLEGDLDKAIEVYKKAVEFSPENTELLTTLGLLYLQLGIYQKAFEHLGNALTYDPTNYKAILAAGSMMQTHGDFDVALTKYRVVACAVPESPPLWNNIGMCFFGKKKYVAAISCLKRANYLAPFDWKILYNLGLVHLTMQQYASAFHFLSAAINFQPKMGELYMLLAVALTNLEDIENAKRAYAEAVHLDKCNPLVNLNYAVLLYNQGEKKNALAQYQEMEKKVSLLKDNSSLEFDSEMVEMAQKLGAALQVGEALVWTKPVKDPKSKHQTTSTSKPASFQQPLGSNQALGQAMSSAAAYRTLPSGAGGTSQFTKPPSLPLEPEPAVESSPTETSEQIREK
B2: BBSome complex member BBS1 (Homo sapiens), Q8NFJ9 (parent)
chain: MAAASSSDSDACGAESNEANSKWLDAHYDPMANIHTFSACLALADLHGDGEYKLVVGDLGPGGQQPRLKVLKGPLVMTESPLPALPAAAATFLMEQHEPRTPALALASGPCVYVYKNLRPYFKFSLPQLPPNPLEQDLWNQAKEDRIDPLTLKEMLESIRETAEEPLSIQSLRFLQLELSEMEAFVNQHKSNSIKRQTVITTMTTLKKNLADEDAVSCLVLGTENKELLVLDPEAFTILAKMSLPSVPVFLEVSGQFDVEFRLAAACRNGNIYILRRDSKHPKYCIELSAQPVGLIRVHKVLVVGSTQDSLHGFTHKGKKLWTVQMPAAILTMNLLEQHSRGLQAVMAGLANGEVRIYRDKALLNVIHTPDAVTSLCFGRYGREDNTLIMTTRGGGLIIKILKRTAVFVEGGSEVGPPPAQAMKLNVPRKTRLYVDQTLREREAGTAMHRAFQTDLYLLRLRAARAYLQALESSLSPLSTTAREPLKLHAVVQGLGPTFKLTLHLQNTSTTRPVLGLLVCFLYNEALYSLPRAFFKVPLLVPGLNYPLETFVESLSNKGISDIIKVLVLREGQSAPLLSAHVNMPGSEGLAAA
partner: B1 chain

From IntAct's records for PubMed 22500027 come the findings set out here.

In one assay the parent is B1. The note with it: with pcm1_human PCM1, Q15154.
pcm1_human PCM1, Q15154, sequence (Q15154 whole entry): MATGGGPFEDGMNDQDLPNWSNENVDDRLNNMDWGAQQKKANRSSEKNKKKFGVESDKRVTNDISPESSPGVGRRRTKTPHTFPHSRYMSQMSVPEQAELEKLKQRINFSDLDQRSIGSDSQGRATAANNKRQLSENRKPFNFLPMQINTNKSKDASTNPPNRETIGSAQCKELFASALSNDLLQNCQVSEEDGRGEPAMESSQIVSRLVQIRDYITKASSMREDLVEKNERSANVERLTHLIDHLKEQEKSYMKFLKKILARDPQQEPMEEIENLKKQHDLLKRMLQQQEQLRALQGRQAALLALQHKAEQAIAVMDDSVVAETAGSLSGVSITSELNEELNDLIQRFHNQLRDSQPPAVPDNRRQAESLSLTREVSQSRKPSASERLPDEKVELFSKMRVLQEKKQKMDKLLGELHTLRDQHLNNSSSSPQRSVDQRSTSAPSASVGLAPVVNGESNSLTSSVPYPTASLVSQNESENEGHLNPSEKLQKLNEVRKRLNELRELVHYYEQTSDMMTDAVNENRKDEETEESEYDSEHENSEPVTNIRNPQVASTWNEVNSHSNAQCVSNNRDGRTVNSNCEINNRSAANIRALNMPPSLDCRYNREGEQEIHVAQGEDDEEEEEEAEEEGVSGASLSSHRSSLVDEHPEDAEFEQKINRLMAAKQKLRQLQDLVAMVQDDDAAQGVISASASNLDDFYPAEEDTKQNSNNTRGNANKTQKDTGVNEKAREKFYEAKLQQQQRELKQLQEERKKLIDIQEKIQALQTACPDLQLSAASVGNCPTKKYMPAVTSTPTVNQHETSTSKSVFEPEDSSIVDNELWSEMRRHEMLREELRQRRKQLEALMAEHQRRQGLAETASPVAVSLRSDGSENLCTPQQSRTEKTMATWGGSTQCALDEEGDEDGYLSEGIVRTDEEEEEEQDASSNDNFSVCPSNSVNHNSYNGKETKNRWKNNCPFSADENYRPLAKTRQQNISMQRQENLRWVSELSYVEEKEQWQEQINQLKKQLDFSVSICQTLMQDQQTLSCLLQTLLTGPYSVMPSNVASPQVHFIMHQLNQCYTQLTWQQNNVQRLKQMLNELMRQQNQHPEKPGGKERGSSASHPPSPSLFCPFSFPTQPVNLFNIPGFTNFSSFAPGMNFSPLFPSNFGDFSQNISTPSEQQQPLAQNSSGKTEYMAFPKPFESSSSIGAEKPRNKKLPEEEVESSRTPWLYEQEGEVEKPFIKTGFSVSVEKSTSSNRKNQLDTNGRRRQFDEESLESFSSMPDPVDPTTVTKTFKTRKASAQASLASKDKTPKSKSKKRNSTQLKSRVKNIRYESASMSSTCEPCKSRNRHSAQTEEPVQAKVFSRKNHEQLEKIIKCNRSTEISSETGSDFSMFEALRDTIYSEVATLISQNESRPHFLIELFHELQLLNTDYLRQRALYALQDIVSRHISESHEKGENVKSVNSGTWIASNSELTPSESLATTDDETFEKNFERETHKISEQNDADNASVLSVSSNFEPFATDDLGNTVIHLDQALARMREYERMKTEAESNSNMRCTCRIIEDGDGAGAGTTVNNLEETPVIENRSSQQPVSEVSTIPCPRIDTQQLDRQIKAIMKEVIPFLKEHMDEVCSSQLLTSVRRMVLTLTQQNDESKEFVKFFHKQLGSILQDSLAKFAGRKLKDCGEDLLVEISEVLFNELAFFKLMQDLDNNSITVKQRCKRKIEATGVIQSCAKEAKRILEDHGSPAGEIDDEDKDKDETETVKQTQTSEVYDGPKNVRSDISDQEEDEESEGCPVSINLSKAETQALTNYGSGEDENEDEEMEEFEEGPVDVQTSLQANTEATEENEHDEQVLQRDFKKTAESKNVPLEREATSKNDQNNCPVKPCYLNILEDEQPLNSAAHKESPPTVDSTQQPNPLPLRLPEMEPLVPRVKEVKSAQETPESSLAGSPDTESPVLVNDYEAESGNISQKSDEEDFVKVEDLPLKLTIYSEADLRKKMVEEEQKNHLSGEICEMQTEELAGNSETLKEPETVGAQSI
Take MAEERVATRTQFPVSTESQKPRQKKAPEFPILEKQNWLIHLHYIRKDYEACKAVIKEQLQETQGLCEYAIYVQALIFRLEGNIQESLELFQTCAVLSPQSADNLKQVARSLFLLGKHKAAIEVYNEAAKLNQKDWEISHNLGVCYIYLKQFNKAQDQLHNALNLNRHDLTYIMLGKIHLLEGDLDKAIEVYKKAVEFSPENTELLTTLGLLYLQLGIYQKAFEHLGNALTYDPTNYKAILAAGSMMQTHGDFDVALTKYRVVACAVPESPPLWNNIGMCFFGKKKYVAAISCLKPANYLAPFDWKILYNLGLVHLTMQQYASAFHFLSAAINFQPKMGELYMLLAVALTNLEDIENAKRAYAEAVHLDKCNPLVNLNYAVLLYNQGEKKNALAQYQEMEKKVSLLKDNSSLEFDSEMVEMAQKLGAALQVGEALVWTKPVKDPKSKHQTTSTSKPASFQQPLGSNQALGQAMSSAAAYRTLPSGAGGTSQFTKPPSLPLEPEPAVESSPTETSEQIREK [R295P]: the “effect of a mutation on the interaction” value is “disrupting interaction”.

Take MAEERVATRTQFPVSTESQKPRQKKAPEFPILEKQNWLIHLHYIRKDYEACKAVIKEQLQETQGLCEYAIYVQALIFRLEGNIQESLELFQTCAVLSPQSADNLKQVARSLFLLGKHKAAIEVYNEAAKLNQKDWEISHNLGVCYIYLKQFNKAQDQLHNALNLNRHDLTYIMLGKIHLLEGDLDKAIEVYKKAVEFSPENTELLTTLGLLYLQLGIYQKAFEHLGNALTYDPTNYKAILAAGSMMQTHGDFDVALTKYRVVACAVPESPPLWNNIEMCFFGKKKYVAAISCLKRANYLAPFDWKILYNLGLVHLTMQQYASAFHFLSAAINFQPKMGELYMLLAVALTNLEDIENAKRAYAEAVHLDKCNPLVNLNYAVLLYNQGEKKNALAQYQEMEKKVSLLKDNSSLEFDSEMVEMAQKLGAALQVGEALVWTKPVKDPKSKHQTTSTSKPASFQQPLGSNQALGQAMSSAAAYRTLPSGAGGTSQFTKPPSLPLEPEPAVESSPTETSEQIREK [G277E]: the “effect of a mutation on the interaction” value is reported as “disrupting interaction”.

The variants in the next assay derive from B2. The conditions noted are these: with bbs4_human BBS4, Q96RK4.
For the variant MAAASSSDSDACGAESNEANSKWLDAHYDPMANIHTFSACLALADLHGDGEYKLVVGDLGPGGQQPRLKVLKGPLVMTESPLPALPAAAATFLMEQHEPRTPALALASGPCVYVYKNLRPYFKFSLPQLPPNPLEQDLWNQAKEDRIDPLTLKEMLESIRETAEEPLSIQSLRFLQLELSEMEAFVNQHKSNSIKRQTVITTMTTLKKNLADEDAVSCLVLGTENKELLVLDPEAFTILAKMSLPSVPVFLEVSGQFDVEFRLAAACRNGNIYILRRDSKHPKYCIELSAQPVGLIRVHKVLVVGSTQDSLHGFTHKGKKLWTVQMPAAILTMNLLEQHSRGLQAVMAGLANGEVRIYRDKALLNVIHTPDAVTSLCFGRYGREDNTLIRTTRGGGLIIKILKRTAVFVEGGSEVGPPPAQAMKLNVPRKTRLYVDQTLREREAGTAMHRAFQTDLYLLRLRAARAYLQALESSLSPLSTTAREPLKLHAVVQGLGPTFKLTLHLQNTSTTRPVLGLLVCFLYNEALYSLPRAFFKVPLLVPGLNYPLETFVESLSNKGISDIIKVLVLREGQSAPLLSAHVNMPGSEGLAAA [M390R], the “effect of a mutation on the interaction” value is “decreasing interaction”.
